These results are taken from US20140221287A1, “Amylin Peptides and Derivatives and Uses Thereof” (ASTRAZENECA PHARMACEUTICALS LP, priority 2011, published 2014).

No end group written: not given here.

For the experiment, the target named is amylin receptor in membranes prepared from the nucleus accumbens portion of the brain (rat) (rat). Kind of experiment: displacement of 125I-rat amylin from rat nucleus accumbens membranes.
CNTATCATQRLANFLVRSSNNLGPVLPPTNVGSNTY-NH2 (ends and bridges not checked) [Cmpd 2 ([desLys^1]-Cmpd 1)] displayed an IC50 of 0.42 nM. KCNTATCATQRLANFLVRSSNNLGPK(mPEG40KD)LPPTNVGSNTY-NH2 (ends and bridges not checked) [Cmpd 23, [K^26(mPEG40KD)]-Cmpd 5]: the IC50 is 66 nM. The figure for CNTATCATQRLANFLVRSSNNLGPK(mPEG40KD)LPPTNVGSNTY-NH2 (ends and bridges not checked) [Cmpd 24, [K^26(mPEG40KD)]-Cmpd 6] is 54 nM; for KCNTATCATQRLANFLVRSSNNLGPVLPPTK(mPEG40KD)VGSNTY-NH2 (ends and bridges not checked) [Cmpd 25, [K^31(mPEG40KD)]-Cmpd 7] it is 86 nM; for KCNTATCATQRLANFLVRSSK(mPEG40KD)NLGPVLPPTNVGSNTY-NH2 (ends and bridges not checked) [Cmpd 21, [K^21(mPEG40KD)]-Cmpd 3] it is 104 nM.

CNTATCATQRLANFLVRSSK(mPEG40KD)NLGPVLPPTNVGSNTY-NH2 (ends and bridges not checked) [Cmpd 22, [K^21(mPEG40KD)]-Cmpd 4]: the IC50 amounted to 112 nM.

On to CNTATCATQRLANFLVRSSNNLGPVLPPTK(mPEG40KD)VGSNTY-NH2 (ends and bridges not checked) [Cmpd 26, [K^31(mPEG40KD)]-Cmpd 8], for which the IC50 worked out at 75 nM. The figure for KCNTATCATQRLANFLVRSSNNLGPK(Y‑shaped‑mPEG40KD)LPPTNVGSNTY-NH2 (ends and bridges not checked) [Cmpd 27, [K^26(Y-shaped-mPEG4OKD)]-Cmpd 5] is 470 nM. mPEG40KD-CNTATCATQRLANFLVRSSNNLGPVLPPTNVGSNTY-NH2 (ends and bridges not checked) [Cmpd 20, mPEG40KD-Cmpd 2]: the half-inhibitory concentration (IC50) was 78 nM.
